# Data: US6682898B2, “High-throughput screening assays for modulators of STAT4 activity” (Tularik Inc., priority 1998, dated 2004)
# Non-standard residues stand in square brackets, D forms with d. No end group written: not given here. pY = N[C@@H](Cc1ccc(OP(=O)(O)O)cc1)C(=O)O
# T1: Syp (Homo sapiens, UniProt Q06124)
# T1 sequence (Q06124 1-593): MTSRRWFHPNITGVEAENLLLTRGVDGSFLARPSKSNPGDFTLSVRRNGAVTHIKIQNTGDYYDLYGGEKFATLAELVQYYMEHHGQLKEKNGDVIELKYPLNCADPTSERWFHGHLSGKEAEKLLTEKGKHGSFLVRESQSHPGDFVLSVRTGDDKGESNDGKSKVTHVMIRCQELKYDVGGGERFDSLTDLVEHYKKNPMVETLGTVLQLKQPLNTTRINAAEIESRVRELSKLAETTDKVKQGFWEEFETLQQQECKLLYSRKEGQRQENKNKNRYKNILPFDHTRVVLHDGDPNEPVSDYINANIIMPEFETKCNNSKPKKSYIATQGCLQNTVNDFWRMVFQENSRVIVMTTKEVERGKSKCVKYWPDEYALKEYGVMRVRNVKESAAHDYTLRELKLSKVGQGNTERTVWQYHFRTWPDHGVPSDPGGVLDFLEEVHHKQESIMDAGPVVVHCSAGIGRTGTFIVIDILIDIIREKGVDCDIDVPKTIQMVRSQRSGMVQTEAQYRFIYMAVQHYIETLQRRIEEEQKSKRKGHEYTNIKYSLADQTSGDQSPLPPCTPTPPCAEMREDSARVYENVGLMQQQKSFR
# T2: STAT6 (Homo sapiens, UniProt P42226)
# T2 sequence (P42226 1-847): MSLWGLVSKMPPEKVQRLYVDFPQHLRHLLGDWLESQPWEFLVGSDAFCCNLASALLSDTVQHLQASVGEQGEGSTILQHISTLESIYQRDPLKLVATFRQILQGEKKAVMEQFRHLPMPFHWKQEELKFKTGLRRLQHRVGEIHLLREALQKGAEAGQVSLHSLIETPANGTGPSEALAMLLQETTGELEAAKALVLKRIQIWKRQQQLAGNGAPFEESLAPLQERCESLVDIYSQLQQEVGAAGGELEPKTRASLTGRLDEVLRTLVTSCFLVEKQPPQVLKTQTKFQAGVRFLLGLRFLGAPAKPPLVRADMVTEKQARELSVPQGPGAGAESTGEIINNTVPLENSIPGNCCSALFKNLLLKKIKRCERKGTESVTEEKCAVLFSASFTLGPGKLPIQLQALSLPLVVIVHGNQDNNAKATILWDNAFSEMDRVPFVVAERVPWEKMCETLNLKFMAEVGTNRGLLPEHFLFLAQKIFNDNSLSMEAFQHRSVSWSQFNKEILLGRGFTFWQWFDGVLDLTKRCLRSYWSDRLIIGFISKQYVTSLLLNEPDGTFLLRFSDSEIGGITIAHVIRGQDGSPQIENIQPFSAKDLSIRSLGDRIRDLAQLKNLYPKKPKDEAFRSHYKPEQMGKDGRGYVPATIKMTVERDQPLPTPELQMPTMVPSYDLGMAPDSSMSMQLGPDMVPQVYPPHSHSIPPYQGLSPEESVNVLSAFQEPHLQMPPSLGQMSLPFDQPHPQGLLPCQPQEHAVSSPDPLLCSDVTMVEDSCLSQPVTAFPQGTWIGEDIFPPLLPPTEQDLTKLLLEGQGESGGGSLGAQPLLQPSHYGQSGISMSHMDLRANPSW
# T3: Ras-GAP (Homo sapiens, UniProt P20936)
# T3 sequence (P20936 1-1047): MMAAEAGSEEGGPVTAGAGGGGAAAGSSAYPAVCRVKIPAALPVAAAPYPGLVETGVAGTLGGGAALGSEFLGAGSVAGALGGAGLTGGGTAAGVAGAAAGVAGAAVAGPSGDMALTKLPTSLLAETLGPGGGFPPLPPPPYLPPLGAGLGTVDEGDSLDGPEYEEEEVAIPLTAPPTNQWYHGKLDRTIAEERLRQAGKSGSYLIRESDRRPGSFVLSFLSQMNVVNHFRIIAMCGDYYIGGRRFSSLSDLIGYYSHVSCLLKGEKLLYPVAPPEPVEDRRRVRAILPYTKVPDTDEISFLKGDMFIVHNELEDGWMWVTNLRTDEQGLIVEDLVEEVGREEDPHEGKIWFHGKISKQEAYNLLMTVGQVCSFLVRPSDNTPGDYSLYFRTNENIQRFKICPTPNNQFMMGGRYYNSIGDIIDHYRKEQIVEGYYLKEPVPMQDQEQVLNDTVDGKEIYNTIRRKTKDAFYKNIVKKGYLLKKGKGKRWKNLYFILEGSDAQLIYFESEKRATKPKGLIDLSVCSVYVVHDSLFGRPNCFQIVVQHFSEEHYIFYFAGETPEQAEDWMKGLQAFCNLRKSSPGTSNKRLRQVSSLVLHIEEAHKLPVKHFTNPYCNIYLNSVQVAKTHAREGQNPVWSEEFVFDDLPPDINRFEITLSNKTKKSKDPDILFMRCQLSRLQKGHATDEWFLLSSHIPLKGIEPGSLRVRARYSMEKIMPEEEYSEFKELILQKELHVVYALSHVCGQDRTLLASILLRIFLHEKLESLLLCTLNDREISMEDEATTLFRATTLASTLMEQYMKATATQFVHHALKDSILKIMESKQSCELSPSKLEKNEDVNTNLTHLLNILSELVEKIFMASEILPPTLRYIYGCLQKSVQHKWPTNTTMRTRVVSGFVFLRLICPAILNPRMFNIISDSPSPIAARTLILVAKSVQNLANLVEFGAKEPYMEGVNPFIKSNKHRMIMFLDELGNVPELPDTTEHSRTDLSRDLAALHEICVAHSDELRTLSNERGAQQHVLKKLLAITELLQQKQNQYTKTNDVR
# T4: STAT4 (UniProt Q14765 1-748, limits assumed)
# T4 construct: also called STAT4 polypeptide
# T4 sequence (looked up): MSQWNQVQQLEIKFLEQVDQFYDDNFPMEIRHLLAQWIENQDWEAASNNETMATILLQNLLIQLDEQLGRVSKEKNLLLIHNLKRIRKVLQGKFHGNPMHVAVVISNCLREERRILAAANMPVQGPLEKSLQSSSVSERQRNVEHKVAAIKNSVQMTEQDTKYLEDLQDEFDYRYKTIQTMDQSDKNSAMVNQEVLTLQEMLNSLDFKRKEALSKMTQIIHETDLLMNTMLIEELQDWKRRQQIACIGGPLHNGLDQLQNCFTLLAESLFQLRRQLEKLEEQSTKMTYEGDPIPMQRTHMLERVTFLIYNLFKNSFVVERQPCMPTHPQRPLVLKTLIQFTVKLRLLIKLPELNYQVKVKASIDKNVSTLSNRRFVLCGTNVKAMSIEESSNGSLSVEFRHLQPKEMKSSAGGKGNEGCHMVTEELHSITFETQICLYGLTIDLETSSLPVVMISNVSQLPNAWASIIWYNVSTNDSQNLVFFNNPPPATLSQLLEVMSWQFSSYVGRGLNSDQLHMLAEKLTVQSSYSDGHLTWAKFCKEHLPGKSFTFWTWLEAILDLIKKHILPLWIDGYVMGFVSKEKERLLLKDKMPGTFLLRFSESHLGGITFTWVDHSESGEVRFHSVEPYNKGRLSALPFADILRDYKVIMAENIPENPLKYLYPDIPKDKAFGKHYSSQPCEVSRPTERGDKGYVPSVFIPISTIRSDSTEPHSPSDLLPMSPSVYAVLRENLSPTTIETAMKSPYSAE
# T5: STAT1 protein (UniProt P42224 1-750, limits assumed)
# T5 sequence (looked up): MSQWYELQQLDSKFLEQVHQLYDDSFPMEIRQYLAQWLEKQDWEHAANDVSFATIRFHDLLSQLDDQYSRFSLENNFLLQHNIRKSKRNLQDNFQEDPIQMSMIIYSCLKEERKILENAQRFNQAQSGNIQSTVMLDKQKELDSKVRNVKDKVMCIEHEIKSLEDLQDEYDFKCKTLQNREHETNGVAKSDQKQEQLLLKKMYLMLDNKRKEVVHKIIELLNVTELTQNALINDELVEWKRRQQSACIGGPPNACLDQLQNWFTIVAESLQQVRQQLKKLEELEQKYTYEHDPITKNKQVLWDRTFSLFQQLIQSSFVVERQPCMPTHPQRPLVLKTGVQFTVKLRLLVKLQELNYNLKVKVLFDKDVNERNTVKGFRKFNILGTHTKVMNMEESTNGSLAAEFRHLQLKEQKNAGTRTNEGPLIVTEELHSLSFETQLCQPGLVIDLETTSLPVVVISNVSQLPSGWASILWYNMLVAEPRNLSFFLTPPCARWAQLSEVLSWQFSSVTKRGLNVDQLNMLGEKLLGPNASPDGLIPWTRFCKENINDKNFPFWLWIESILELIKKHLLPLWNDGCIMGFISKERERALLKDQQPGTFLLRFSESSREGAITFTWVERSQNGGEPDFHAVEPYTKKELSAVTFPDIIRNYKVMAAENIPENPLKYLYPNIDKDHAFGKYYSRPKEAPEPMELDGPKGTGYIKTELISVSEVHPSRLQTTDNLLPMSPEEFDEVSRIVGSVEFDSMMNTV
# Legend:
# PLCγ = test: SH2 domain protein binding assay, PLCγ; set-up: key: +++ = high affinity binding
# From the text: (§1) This Example describes binding assays for various proteins that contain SH2 domains.
# Src = Src (Homo sapiens, UniProt P12931); test: SH2 domain protein binding assay, Src; set-up: key: +++ = high affinity binding
# From the text: as §1
# P85-PI3K = P85-PI3K (Homo sapiens, UniProt P27986); test: SH2 domain protein binding assay, P85-PI3K; set-up: key: +++ = high affinity binding
# Chain of P85-PI3K (P27986 whole entry, the tested form may be a part): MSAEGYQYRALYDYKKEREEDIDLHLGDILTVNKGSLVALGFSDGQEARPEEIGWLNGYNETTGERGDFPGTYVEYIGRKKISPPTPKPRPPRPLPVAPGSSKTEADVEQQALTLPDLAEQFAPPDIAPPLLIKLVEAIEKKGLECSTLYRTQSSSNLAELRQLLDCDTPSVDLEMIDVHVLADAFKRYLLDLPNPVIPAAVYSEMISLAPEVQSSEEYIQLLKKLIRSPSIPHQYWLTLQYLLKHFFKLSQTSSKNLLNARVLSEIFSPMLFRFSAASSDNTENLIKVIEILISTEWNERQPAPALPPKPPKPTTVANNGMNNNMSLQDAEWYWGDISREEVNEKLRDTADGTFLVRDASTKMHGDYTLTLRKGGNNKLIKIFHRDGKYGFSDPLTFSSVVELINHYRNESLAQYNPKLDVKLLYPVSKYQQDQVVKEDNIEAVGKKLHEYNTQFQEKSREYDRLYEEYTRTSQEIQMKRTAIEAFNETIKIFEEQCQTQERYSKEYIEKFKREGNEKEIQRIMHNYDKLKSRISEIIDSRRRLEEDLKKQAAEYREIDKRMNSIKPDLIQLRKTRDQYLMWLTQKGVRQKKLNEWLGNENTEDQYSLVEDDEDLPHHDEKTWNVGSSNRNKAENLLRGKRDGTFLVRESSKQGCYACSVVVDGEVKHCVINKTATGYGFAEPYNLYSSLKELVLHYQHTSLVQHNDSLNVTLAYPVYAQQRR
# From the text: as §1
# Syp = target: T1, Syp; test: SH2 domain protein binding assay, Syp; set-up: key: +++ = high affinity binding
# From the text: as §1
# STAT6 = target: T2, STAT6; test: SH2 domain protein binding assay, STAT6; set-up: key: +++ = high affinity binding
# From the text: as §1
# Ras-GAP = target: T3, Ras-GAP; test: SH2 domain protein binding assay, Ras-GAP; set-up: key: +++ = high affinity binding
# From the text: as §1
# STAT4 = target: T4, STAT4; test: concentration at 50% binding of the STAT protein to the phosphotyrosine peptide (Example 4)
# STAT1 protein [1] = target: T5, STAT1 protein; test: as above
# STAT1 protein [2] = target: T5, STAT1 protein; test: method not stated; told of the SH2 domain of STAT1 at the start of Example 1
molecule,measurement,setting,value
YITPLP: phosphotyrosine-containing peptide ligand ([pY]ITPLP),binding to PLCγ,PLCγ,+++
YEEI: phosphotyrosine-containing peptide ligand,binding to Src,Src,+++
YMNM: phosphotyrosine-containing peptide ligand ([pY]MNM),binding to P85-PI3K,P85-PI3K,+++
YTAVQP: phosphotyrosine-containing peptide ligand ([pY]TAVQP),binding to Syp,Syp,+++
YMDM: phosphotyrosine-containing peptide ligand ([pY]MDM),binding to P85-PI3K,P85-PI3K,+++
"GYKPFQDLI (G[pY]KPFQDLI) [phosphotyrosine-containing peptide ligand, Y is phosphotyrosine]",binding to STAT6,STAT6,+++
YMAP: phosphotyrosine-containing peptide ligand ([pY]MAP),binding to Ras-GAP,Ras-GAP,+++
ASSGEEG[pY]KPFQDLI [ASSGEEGY^PKPFQDLI],IC50,STAT4,30 µM
SFG[pY]DKPHVL [SFGY*DKPHVL],IC50,STAT1 protein [1],0.6 µM
same,IC50,STAT4,10 µM
G[pY]DKPHVL [interferon-γ receptor-derived peptide sequence GY^PDKPHVL],Kd,STAT1 protein [2],~0.12 µM
